A short description of this data set: soluble on expression in E. coli; label from the status in PepcDB or PDB records.
As to “MITQGPNLIGIHANEKENIETKKFVNWFLNQSITDWNSNNQQKNSDQTTKTAAEYFTDQASYILPLKEKFNKSSDLELKGSSSSSNLTTSSASASLLISNNSSTASSPAPKKTNNNSNTFTAKALELFQQAANNEIIPFSDPSDFRNGTFRNNISSSFNAAVNSK”, the “soluble on expression in E. coli” value is recorded as “soluble”.

Regarding “MGSDKIHHHHHHMEFQCPLCRQRLHFHEESRGWHCDGKHHFDKKEIGYWDFYKGNKPRNAESRQELRARQFLVTSGLFQPAVEAMVKVLQTQDCGSERNCVNLGPGHAWIGKLLAQALSEHELPLKVFSPLESENEAFAAAKSGMEAVCLTPLKSLPFADASADMVWLLDIPAKGKEWQRILKPGGLLLMLAAGPRHLWQIKEFVYEGLTEKPFVLELSGQFDLISQTPVSWTHALSVADAKVLMGMAPWAWRVKEASLKAMEKGDFSGLEMDYRIILAKKRV”, the “soluble on expression in E. coli” value is “not soluble”.

Consider “GSASAQSRTLAGGIHATDLNDKSVQRALDFAISEYNKVINKDEYYSRPLQVMAAYQQIVGGVNYYFNVKFGRTTCTKSQPNLDNCPFNDQPKLKEEEFCSFQINEVPWEDKISILNYKCRKV”, for which the “soluble on expression in E. coli” value was “soluble”.

As to “MLRLATPLRSGLLSSAIRRHSACCGGEHKMSEAELKMSKLLTEGIDGCTRVEVHDVSNGCGSMFDVVVEAAGFKGKSKVAQHKQVTSILREQIKDMHGLTIKTKAA”, the “soluble on expression in E. coli” value was “not soluble”.

Regarding “MEDFKKIVNNIRLKDTFDFKLAAFPNQNYDQLLPSQIYKNYYQGIEIQQHKYQNELDIKIINFLYPDGDFGSANKNGTLKLSLMLTDKKNNQVYYKLLEVSGFKSNPYGVDLEHHHHHH”, the “soluble on expression in E. coli” value is on record as “not soluble”.

With “MARLKTAQPNSSLRKIAVVVATAVSGMSVYAQAAVQPKEETITVTAAPAAQESAWGPAPTIAAKRSATTTKTDTPIEKTPQSVSVVTNEEMQMHQFQSVKEALGYTPGVTVSSRGASNTYDFVIIRGFSSVGLSQNNYLDGLKLQGNFYNDAVIDPYMLERVELMRGPTSVLYGKSNPGGIISMVSKRPTTEPLKEIQFKMGTDNLFQTGFDFSDSLDDNGEFSYRLTGLARSTNEQQKSSESQRYAIAPSFTWRPDEKTNFTFLSYFQNEPETGYYGWLPKEGTVEPLPNGKRLPTDFNEGASNNTYSRNEKMVGYSFEHGFNDTFTVRQNLRFVEMKTAQKSVYGTGIAADGHTLNRGTIVDNERLQNFSVDTQLESKFATGDIDHTLLTGVDFMRMRNDINATFGSAPSIDLYNNYHPEYFAFGGAEPYQMNESKQTGLYVQDQAEWNKWVFTLGGRYDWSKQATTVRQNSTTPTEGYIERNDHQFTWRGGVNYVFDNGISPYFSYSQSFEPSAFDLWSTPRVSYKPSKGEQYEAGVKYVPKDMPVVVTGAVYQLTKTNNLTADPTNPLAQVPAGEIRARGVELEAKAALTANINMTASYTYTDAEYTKDTNLKGNTPEQVPEHMASLWGDYTFNEGPLSGLTLGTGGRFIGSSYGDPANSFKVGSAAVMDAVVKYDLARFGMAGSSIAVNVNNLLDREYVASCFQTYGCFWGAERQVVATATFRF”, the “soluble on expression in E. coli” value is “not soluble”.

With “MFGSSGFGNKSMFGGSNISTSTTTPAANTTQNDDFLVDGAPEDTIQVIKFSPTPQDKPMLACGSWDGTIRVWMFNDANTFEGKAQQNIPAPILDIAWIEDSSKIFIACADKEARLWDLASNQVAVVGTHDGPVKTCHWINGNNYQCLMTGSFDKTLRFWDMKNLPNQTQMAQIQLPERVYAADVLYPMAVVALANKHIKVYNLENGPTEVKDIESQLKFQIRCISIFKDKSNQNPAGFALGSIEGRVAVQYVDVANPKDNFTFKCHRSAELVNGFQEIYAVNDICFHPQHGTLVTIGSDGRYSMWDKDARTKLKTSEPHPMPLTCCDVHSSGAFLVYALGYDWSRGHEGNTQPGSKIVIHKCIEDMKPRPTKK”, the “soluble on expression in E. coli” value was “not soluble”.

In the case of “MSATKSEMPADVASVTDSSAASPAFPLIGDFLEEFLKCQVCCTNYNETTKLARGLHCGHTFCTECIKTMQKYGNSAYLECPSCRAETKCDIAAVSTNFAIMELIRKCGFLGPEKPEEPPMKQAAQPQLEQTIDELIDEGYRLLIADVKADLMAKFEQLRDVSKTSTIEATKADLEVLCDSVKEAVYEADLEYSYDEEESDEDEEENEDEEDVEEEEEKPCAEKKSPAQPERSSSLVRGFQIGLSRLFRNRRIHTEHLQVDHGAIATKLETRAACTEKSDNVKK”, the “soluble on expression in E. coli” value is “not soluble”.

Take “MGSDKIHHHHHHCDDNDGYSLGDIAVDWATVRVVGGDTYSLNADRWGTLWPAATAIPFYKPIDGQRVITYFNPLYDNYEGYDHAVKVEHNYNVLTKQVEDLTAENESEFGNDPVWVNKDMMWIGGGYLNVIFRQNLPVKEKHLVSLVRDMRATAAEGEDDGYIHLELRYKTYDDVTARQANGAVSFNLNSLDLTGKKGIKVKLNSVKDGETEVVFNLKGQSMPEEAKQVTLSDEVQIK”: the “soluble on expression in E. coli” value is reported as “not soluble”.

Turning to “MSLKNPCNAEFQNFCIHGECKYIEHLEAVTCKCQQEYFGERCGEKSMKTHSMIDSSEGHHHHHH”, the “soluble on expression in E. coli” value is “not soluble”.

As to “MGSRIMHVIIANGIAEKLSIHDKTSFLLGAVAPDAVHSKKEKGTSHFYAGTTKNYTRRIDYDSFFHKYESHINSPFILGYYTHLIADDNWLSGFFLPWLKNRIENDETIAPLYYNDFKLLNAKLLHHYDQEQQLFSLLNQEAHIVDIEEVSKENVLAFRKYLFEDMLYPKQYLHEDLQVFTFDQIVGYIETAIEKGVFFIKQLSNEKSTSKI”, the “soluble on expression in E. coli” value is “not soluble”.

Regarding “MSLTMAKTLYEKVFDAHVVYEGKNELPILYIDRHLIHEVTSPQAFSGLKMAKRRMARADLTLATIDHDVSTKSMDLNACSDMAKEQITTLMQNTKEFGVRLLGLGDKNQGIVHIVGPELGFTLPGVTLVCGDSHTATHGAFGALAFGIGTSEVEHVMATQTLKQAKLKTMKIECKGQFQKGVYTKDLILYLIAQYGTAKGTGYAIEFCGELIRNLSMEARMTLCNMAIEFGAKVGMIAPDEITFEYIKGKEFAPKGEEFQKYCEYWKSLRSDEGAKYDASITLDVSKIKPQISYGTNPSQVIGIDEKIPKISDFKNQSEQKSLLDALYYVNLEQDQVIEGVKIDIVFIGSCTNGRLEDLKIAADILKGRKIHKNVKALIVPGSMQVRKEAENLGLDKIFIEAGCEWRYAGCSMCLGMNDDKANSGQRVASTSNRNFVGRQGKGSITHLMSPASAAACAIEGVICDNRKYLGEGHHHHHH”, the “soluble on expression in E. coli” value was “soluble”.

For “SDDTLFQLKFTAKQLEKLAKKAEKDSKAEQAKVKKALQQKNVECARVYAENAIRKKNEGVNWLRMASRVDAVASKVQTAVTMKGVTKNMAQVTKALDKALSAMDLQKVSAVMDRFEQQVQNLDVHTSVMEDSVSSATTLTTPQEQVDSLIVQIAEENGLEVLDQLSQLPEGASAVGESSVRSQEDQLSRRLAALRN”, the “soluble on expression in E. coli” value is reported as “soluble”.

For the sequence “MHHHHHHMGIVTGPIIDHSKENDVMNEAEQNAETVRRGYAAFNSGDMKTLTELFDENASWHTPGRSRIAGDHKGREAIFAQFGRYGGETGGTFKAVLLHVLKSDDGRVIGIHRNTAERGGKRLDVGCCIVFEFKNGRVIDGREHFYDLYAWDEFWR”, the “soluble on expression in E. coli” value was “soluble”.

On to “MRGSHHHHHHTDPALRARIGIDLGGTKTEVIALGDAGEQLYRHRLPTPRDDYRQTIETIATLVDMAEQATGQRGTVGMGIPGSISPYTGVVKNANSTWLNGQPFDKDLSARLQREVRLANDANCLAVSEAVDGAAAGAQTVFAVIIGTGCGAGVAFNGRAHIGGNGTAGEWGHNPLPWMDEDELRYREEVPCYCGKQGCIETFISGTGFAMDYRRLSGHALKGSEIIRLVEESDPVAELALRRYELRLAKSLAHVVNILDPDVIVLGGGMSNVDRLYQTVGQLIKQFVFGGECETPVRKAKHGDSSGVRGAAWLWPQEGLCGR”, for which the “soluble on expression in E. coli” value was “soluble”.

As for “METKSLICTACPRGCRLSVKIENENISVSGNKCPKGLSYGKTEAVCPMRILTSTIASSVEGFPRLPVKTSVEVPLKNFSEYMHLIRKLKADSSKMPGDIIVKNFAESGADLIAAGGSLLEHHHHHH”, the “soluble on expression in E. coli” value was “soluble”.

“MGHHHHHHSHMRGCGSRRLCGSWRGCWSWSGKPSTSSRPSPTAALRSWNNENKSALQLERQVKELKLGEPGSYQPAETAAKAQLSLMALPGEGYGGGHLDNEEEAPRPMLNIPGDLESREAMVAFFNSAGASAQEEQSVCCQPLAHPVASSQKKPEAAAPAPETGGESVCGDTHWALQEAMEKLQQLYGRRRWT”: the “soluble on expression in E. coli” value is “not soluble”.

Consider “VASKAIFYHAGCPVCVSAEQAVANAIDPSKYTVEIVHLGTDKARIAEAEKAGVKSVPALVIDGAAFHINFGAGIDDLKGS”, for which the “soluble on expression in E. coli” value is listed as “soluble”.

“MAKTIFYFSYRKTEELHAKAKELKKITTDYGYELTDDYQKANVIISIGGDGAFLKSVRETGFRQDCLYAGIALTEQLGQYCDFHINQLDEIIKAAIEDRWLVRRYPTIYGTVNNTKAFYVLNEFNIRSSIIRTLTMDLYINDSHFETFRGDGMVISTPTGSTAYNKSVNGSIVDPLLPSMQVSELASINNNKFRTLGSSFILSPKRKLRIEIASEEGNNEFPMIGMDSEALSIQHVHEVNLEVGDRFINIIKLPKNSFWDKVKRNFLLEHHHHHH”: the “soluble on expression in E. coli” value is listed as “soluble”.

“MGSDKIHHHHHHMEESPLSRAPSRGGVNFLNVARTYIPNTKVECHYTLPPGTMPSASDWIGIFKVEAACVRDYHTFVWSSVPESTTDGSPIHTSVQFQASYLPKPGAQLYQFRYVNRQGQVCGQSPPFQFREPRPMDELVTLEEADGGSDILLVVPKATVLQNQLDESQQERNDLMQLKLQLEGQVTELRSRVQELERALATARQEHTELMEQYKGISRSHGEITEERDILSRQQGDHVARILELEDDIQTISEKVLTKEVELDRLRDTVKALTREQEKLLGQLKEVQADKEQSEAELQVAQQENHHLNLDLKEAKSWQEEQSAQAQRLKDKVAQMKDTLGQAQQRVAELEPLKEQLRGAQELAASSQQKATLLGEELASAAAARDRTIAELHRSRLEVAEVNGRLAELGLHLKEEKCQWSKERAGLLQSVEAEKDKILKLSAEILRLEKAVQEERTQNQVFKTELAREKDSSLVQLSESKRELTELRSALRVLQKEKEQLQEEKQELLEYMRKLEARLEKVADEKWNEDATTEDEEAAVGLSCPAALTDSEDESPEDMRLPPYGLCERGDPGSSPAGPREASPLVVISQPAPISPHLSGPAEDSSSDSEAEDEKSVLMAAVQSGGEEANLLLPELGSAFYDMASGFTVGTLSETSTGGPATPTWKECPICKERFPAESDKDALEDHMDGHFFFSTQDPFTFE”: the “soluble on expression in E. coli” value is “not soluble”.

With “NLSASNRALPVLTLFTKAPCPLCDEAKEVLQPYKDRFILQEVDITLPENSTWYERYKFDIPVFHLNGQFLMMHRVNTSKLEKQLRKL”, the “soluble on expression in E. coli” value was “soluble”.

Take “GPGSMAKYFVPDTTFGLDAECAVCCCLWTDPVEISECQHIFCRGCVEGLETCPVCCGPVTRLDTPGKFILRLLQRTQGSCSACLWKGTYSDFKEKHFECLEADEVQSSDEGKILATTECVAMREYYLEGSGAKPEGSAPSPAAVDSFLVHPVAAVNAGSPHAQPFADATNNGAPVADAHLTCEQRAQWRQSLTSTARDYGMSDREYRELMECFPDFAVPVPDRGMAPELRWRGACRLLRFLNYPNHPDDVKNLFEMADRDALTESVPFHVLCLWLMLNRRNPAQWYHMTAEPYEQFLKVAQLLDVEATGLFQLDQCRILAEQYFERDVCDAEWLRIKRLLRSKDAEIRQSFLSSANRRRVNLDESFALPSAKLPLHDVLCAFTRHVDALKKEQQQQSEAERVQADYVRRIKRIVDFYEPDAVNQLDATLQKFTGEEESLLMTLTAMYGPEPP”: the “soluble on expression in E. coli” value is “soluble”.

As to “MSLAEVGSKSVLFVCLGNICRSPIAEAVFRKLVTDEKVSDNWAIDSSAVSDWNVGRPPDPRAVSCLRNHGISTAHKARQITKEDFATFDYILCMDESNLRDLNRKSNQVKNCKAKIELLGSYDPQKQLIIEDPYYGNDSDFEVVYQQCLRCCKAFLEKTYEGHHHHHH”, the “soluble on expression in E. coli” value is “soluble”.
